Starred links: 1 amine or outer side, 2 acyl side, 3 side chain; linkers in the order of their positions; H or OH if unused. Non-standard residues stand in square brackets, D forms with d. Groups on a side chain read outwards from the residue. *: point of attachment. TTDS = 4-[3-[2-[2-(3-aminopropoxy)ethoxy]ethoxy]propylamino]-4-oxo-butanoyl; γGlu = O=C(O)[C@H](CCC(=O)[*:2])N[*:1]; Stearoyl = CCCCCCCCCCCCCCCCCC(=O)*; Palmitoyl = CCCCCCCCCCCCCCCC(=O)*; αMeK = C[C@](N)(CCCCN)C(=O)O; AEEA = NCCOCCOCC(=O)O; Aib = CC(C)(N)C(=O)O
Target: T1, RXFP1 receptor (endogenous, on OVCAR5 cells) (UniProt Q9HBX9 1-757, limits assumed)
T1 sequence (looked up): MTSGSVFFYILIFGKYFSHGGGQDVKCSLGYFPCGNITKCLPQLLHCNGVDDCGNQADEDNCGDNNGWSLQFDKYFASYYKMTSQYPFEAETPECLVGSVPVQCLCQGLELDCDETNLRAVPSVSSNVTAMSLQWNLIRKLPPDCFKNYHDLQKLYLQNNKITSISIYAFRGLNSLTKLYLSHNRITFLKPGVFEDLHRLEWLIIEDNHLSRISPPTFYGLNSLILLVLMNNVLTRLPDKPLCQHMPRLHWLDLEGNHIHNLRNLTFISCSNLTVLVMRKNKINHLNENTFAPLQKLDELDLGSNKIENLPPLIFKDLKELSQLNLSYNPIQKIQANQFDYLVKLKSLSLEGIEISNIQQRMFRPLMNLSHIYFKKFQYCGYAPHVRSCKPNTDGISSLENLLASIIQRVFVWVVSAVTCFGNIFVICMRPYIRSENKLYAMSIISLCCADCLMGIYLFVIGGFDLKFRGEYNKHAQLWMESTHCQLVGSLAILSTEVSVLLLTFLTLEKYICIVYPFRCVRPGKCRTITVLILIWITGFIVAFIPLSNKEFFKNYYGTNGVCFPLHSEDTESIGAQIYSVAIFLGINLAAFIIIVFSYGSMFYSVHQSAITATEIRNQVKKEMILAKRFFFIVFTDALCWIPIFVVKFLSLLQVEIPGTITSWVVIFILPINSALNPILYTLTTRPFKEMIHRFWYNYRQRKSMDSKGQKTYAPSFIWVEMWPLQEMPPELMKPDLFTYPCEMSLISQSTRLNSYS
Assay: cell-based or functional assay

Ac-LEGREKVRAK(Ac)I[Aib][Aib]EGK([TTDS-TTDS-TTDS-γGlu-γGlu-γGlu-Palmitoyl])SRWS[Aib]RKK(Ac)-NH2 [peptide of SEQ ID NO: 64] was tested, and the “EC50 (nM), OVCAR 5 cells (cAMP)” value was 0.52 nM and the “EMax, OVCAR 5 cells (cAMP)” value was 95%.

In the case of Ac-LEGREKVRAK(Ac)I[Aib][Aib]EGK([TTDS-TTDS-TTDS-γGlu-γGlu-γGlu-Palmitoyl])SQWS[Aib]RKK(Ac)-NH2 [peptide of SEQ ID NO: 63], the “EC50 (nM), OVCAR 5 cells (cAMP)” value is reported as 1.45 nM and the “EMax, OVCAR 5 cells (cAMP)” value is reported as 97%.

For Ac-LEGREKVRAK(Ac)I[Aib][Aib]EGK([TTDS-TTDS-TTDS-γGlu-γGlu-γGlu-Palmitoyl])STWS[Aib]RAK-NH2 [peptide of SEQ ID NO: 71], the “EC50 (nM), OVCAR 5 cells (cAMP)” value was 0.36 nM and the “EMax, OVCAR 5 cells (cAMP)” value was 95%.

With Ac-LEGREKVRAK(Ac)I[Aib][Aib]EGK([TTDS-TTDS-TTDS-γGlu-γGlu-γGlu-Stearoyl])STFS[αMeK]RAK(Ac)-NH2 [peptide of SEQ ID NO: 7] the “EC50 (nM), OVCAR 5 cells (cAMP)” value was 0.07 nM and the “EMax, OVCAR 5 cells (cAMP)” value was 95%.

In the case of Ac-LEGRERVRAK(Ac)I[Aib][Aib]EGK([TTDS-TTDS-TTDS-γGlu-γGlu-γGlu-Palmitoyl])STWS[Aib]RKK(Ac)-NH2 [peptide of SEQ ID NO: 67], the “EC50 (nM), OVCAR 5 cells (cAMP)” value is reported as 0.48 nM and the “EMax, OVCAR 5 cells (cAMP)” value is reported as 95%.

With Ac-LEGREKVRAK(Ac)I[Aib][Aib]EGK([TTDS-TTDS-TTDS-γGlu-γGlu-γGlu-Palmitoyl])SKWS[Aib]RAK-NH2 [peptide of SEQ ID NO: 73] the “EC50 (nM), OVCAR 5 cells (cAMP)” value was 0.2 nM and the “EMax, OVCAR 5 cells (cAMP)” value was 95%.

With Ac-LEGREKVRAK(Ac)I[Aib][Aib]EGK([TTDS-TTDS-γGlu-γGlu-γGlu-Stearoyl])STWS[Aib]RKK(Ac)-NH2 [peptide of SEQ ID NO: 6] the “EC50 (nM), OVCAR 5 cells (cAMP)” value was 0.27 nM and the “EMax, OVCAR 5 cells (cAMP)” value was 95%.

With Ac-LEGREKVRAK(Ac)I[Aib][Aib]EGK([TTDS-TTDS-TTDS-γGlu-γGlu-γGlu-Stearoyl])STFS[Aib]RKK(Ac)-NH2 [peptide of SEQ ID NO: 61] the “EC50 (nM), OVCAR 5 cells (cAMP)” value was 0.1 nM and the “EMax, OVCAR 5 cells (cAMP)” value was 97%.

B1: peptide of SEQ ID NO: 5 (peptide)
peptide: Ac-LEGREKVRAK(Ac)I[Aib][Aib]EGK([AEEA-AEEA-AEEA-AEEA-γGlu-γGlu-γGlu-Palmitoyl])STWS[Aib]RKK(Ac)-NH2
SMILES: CCCCCCCCCCCCCCCC(=O)N[C@@H](CCC(=O)N[C@@H](CCC(=O)N[C@@H](CCC(=O)NCCOCCOCC(=O)NCCOCCOCC(=O)NCCOCCOCC(=O)NCCOCCOCC(=O)NCCCC[C@H](NC(=O)CNC(=O)[C@H](CCC(=O)O)NC(=O)C(C)(C)NC(=O)C(C)(C)NC(=O)[C@@H](NC(=O)[C@H](CCCCNC(C)=O)NC(=O)[C@H](C)NC(=O)[C@H](CCCNC(=N)N)NC(=O)[C@@H](NC(=O)[C@H](CCCCN)NC(=O)[C@H](CCC(=O)O)NC(=O)[C@H](CCCNC(=N)N)NC(=O)CNC(=O)[C@H](CCC(=O)O)NC(=O)[C@H](CC(C)C)NC(C)=O)C(C)C)[C@@H](C)CC)C(=O)N[C@@H](CO)C(=O)N[C@H](C(=O)N[C@@H](Cc1c[nH]c2ccccc12)C(=O)N[C@@H](CO)C(=O)NC(C)(C)C(=O)N[C@@H](CCCNC(=N)N)C(=O)N[C@@H](CCCCN)C(=O)N[C@@H](CCCCNC(C)=O)C(N)=O)[C@@H](C)O)C(=O)O)C(=O)O)C(=O)O
In the case of B1, the “EC50 (nM), OVCAR 5 cells (cAMP)” value is reported as 9.1 nM and the “EMax, OVCAR 5 cells (cAMP)” value is reported as 85%.

In the case of Ac-LEGREKVRAK(Ac)I[Aib][Aib]EGK([TTDS-TTDS-TTDS-γGlu-γGlu-γGlu-γGlu-Palmitoyl])STWS[Aib]RKK(Ac)-NH2 [peptide of SEQ ID NO: 62], the “EC50 (nM), OVCAR 5 cells (cAMP)” value is reported as 0.6 nM and the “EMax, OVCAR 5 cells (cAMP)” value is reported as 98%.

With Ac-LEGREKVRAK(Ac)I[Aib][Aib]EGK([TTDS-TTDS-TTDS-TTDS-γGlu-γGlu-γGlu-Palmitoyl])STFS[αMeK]RAK(Ac)-NH2 [peptide of SEQ ID NO: 78] the “EC50 (nM), OVCAR 5 cells (cAMP)” value was 0.18 nM and the “EMax, OVCAR 5 cells (cAMP)” value was 99%.

In the case of Ac-LEGREKVRAK(Ac)I[Aib][Aib]EGK([TTDS-TTDS-TTDS-γGlu-γGlu-γGlu-Palmitoyl])STWS[Aib]RK(Ac)R-NH2 [peptide of SEQ ID NO: 69], the “EC50 (nM), OVCAR 5 cells (cAMP)” value is reported as 0.78 nM and the “EMax, OVCAR 5 cells (cAMP)” value is reported as 97%.

Ac-LEGRERVRAK(Ac)I[Aib][Aib]EGK([TTDS-TTDS-TTDS-γGlu-γGlu-γGlu-Palmitoyl])STFS[Aib]RRK(Ac)-NH2 [peptide of SEQ ID NO: 76] was tested, and the “EC50 (nM), OVCAR 5 cells (cAMP)” value was 0.18 nM and the “EMax, OVCAR 5 cells (cAMP)” value was 96%.

In the case of Ac-LEGREKVRAK(Ac)I[Aib][Aib]EGK([TTDS-TTDS-TTDS-γGlu-γGlu-γGlu-Palmitoyl])STWS[Aib]RKK(Ac)-NH2 [peptide of SEQ ID NO: 1], the “EC50 (nM), OVCAR 5 cells (cAMP)” value is reported as 1.5 nM and the “EMax, OVCAR 5 cells (cAMP)” value is reported as 99%.

For Ac-LEGREKVRAK(Ac)I[Aib][Aib]EGK([TTDS-TTDS-TTDS-TTDS-γGlu-γGlu-γGlu-Stearoyl])STFS[Aib]RKK(Ac)-NH2 [peptide of SEQ ID NO: 59], the “EC50 (nM), OVCAR 5 cells (cAMP)” value was 0.09 nM and the “EMax, OVCAR 5 cells (cAMP)” value was 99%.

For Ac-LEGRERVRAK(Ac)I[Aib][Aib]EGK([TTDS-TTDS-TTDS-TTDS-γGlu-γGlu-γGlu-Palmitoyl])STWS[Aib]RRK(Ac)-NH2 [peptide of SEQ ID NO: 75], the “EC50 (nM), OVCAR 5 cells (cAMP)” value was 0.19 nM and the “EMax, OVCAR 5 cells (cAMP)” value was 97%.

In the case of Ac-LEGREKVRAK(Ac)I[Aib]IEGK([TTDS-TTDS-TTDS-γGlu-γGlu-γGlu-Palmitoyl])STWS[Aib]RKK(Ac)-NH2 [peptide of SEQ ID NO: 70], the “EC50 (nM), OVCAR 5 cells (cAMP)” value is reported as 1.34 nM and the “EMax, OVCAR 5 cells (cAMP)” value is reported as 94%.

For Ac-LEGREKVRAK(Ac)I[Aib][Aib]EGK([TTDS-TTDS-TTDS-γGlu-γGlu-γGlu-Palmitoyl])STWK(Ac)[Aib]RAK(Ac)-NH2 [peptide of SEQ ID NO: 66], the “EC50 (nM), OVCAR 5 cells (cAMP)” value was 6.31 nM and the “EMax, OVCAR 5 cells (cAMP)” value was 93%.

With Ac-LEGRERVRAK(Ac)I[Aib][Aib]EGK([TTDS-TTDS-TTDS-TTDS-γGlu-γGlu-γGlu-Palmitoyl])STFS[Aib]RRK(Ac)-NH2 [peptide of SEQ ID NO: 77] the “EC50 (nM), OVCAR 5 cells (cAMP)” value was 0.11 nM and the “EMax, OVCAR 5 cells (cAMP)” value was 98%.

For Ac-LEGREKVRAK(Ac)I[Aib][Aib]EGK([TTDS-TTDS-TTDS-γGlu-γGlu-γGlu-Palmitoyl])SKFS[Aib]RKK(Ac)-NH2 [peptide of SEQ ID NO: 79], the “EC50 (nM), OVCAR 5 cells (cAMP)” value was 0.45 nM and the “EMax, OVCAR 5 cells (cAMP)” value was 95%.

With Ac-LEGREKVRAK(Ac)I[Aib][Aib]EGK([TTDS-TTDS-TTDS-γGlu-γGlu-γGlu-Palmitoyl])STF[Aib]RRAK(Ac)-NH2 [peptide of SEQ ID NO: 72] the “EC50 (nM), OVCAR 5 cells (cAMP)” value was 0.56 nM and the “EMax, OVCAR 5 cells (cAMP)” value was 91%.

In the case of Ac-LEGREKVRAK(Ac)I[Aib]IEGK([TTDS-TTDS-TTDS-TTDS-γGlu-γGlu-γGlu-Palmitoyl])STWS[Aib]RKK(Ac)-NH2 [peptide of SEQ ID NO: 74], the “EC50 (nM), OVCAR 5 cells (cAMP)” value is reported as 0.54 nM and the “EMax, OVCAR 5 cells (cAMP)” value is reported as 94%.

Ac-LEGREKVRAK(Ac)I[Aib][Aib]EGK([TTDS-TTDS-TTDS-γGlu-γGlu-γGlu-Palmitoyl])STWS[Aib]RK(Ac)K-NH2 [peptide of SEQ ID NO: 68] was tested, and the “EC50 (nM), OVCAR 5 cells (cAMP)” value was 0.88 nM and the “EMax, OVCAR 5 cells (cAMP)” value was 98%.

Ac-LEGREKVRK(Ac)QI[Aib][Aib]EGK([TTDS-TTDS-TTDS-γGlu-γGlu-γGlu-Palmitoyl])STWS[Aib]RKK(Ac)-NH2 [peptide of SEQ ID NO: 65] was tested, and the “EC50 (nM), OVCAR 5 cells (cAMP)” value was 1.19 nM and the “EMax, OVCAR 5 cells (cAMP)” value was 95%.

With Ac-LEGREKVRAK(Ac)I[Aib][Aib]EGK([TTDS-TTDS-γGlu-γGlu-γGlu-Stearoyl])STFS[Aib]RKK(Ac)-NH2 [peptide of SEQ ID NO: 60] the “EC50 (nM), OVCAR 5 cells (cAMP)” value was 0.15 nM and the “EMax, OVCAR 5 cells (cAMP)” value was 95%.
